Values belong to the binder of their own block, whether it stands above or below them.
Tests used:
recombinant human TNFα [1] = target: T1, recombinant human TNFα (human, UniProt P01375 77-233); experiment: competition: mAb in hybridoma supernatant preincubated with 125I-TNFα (5 ng/ml), then 125I-TNFα bound to plate-coated p55-sf2 counted as cpm
T1 construct: also called huTNFα; tumor necrosis factor alpha
Procedure: Although eight TNV mAb samples were tested in these experiments, for simplicity three of the mAbs that were shown by DNA sequence analyses to be identical to one of the other TNV mAbs (see Section 5.2.2) are not shown here. Each sample was tested in duplicate. The results shown are representative of two independent experiments.
(§1) Assay for Inhibition of TNF Binding to Receptor. […] 50:1 of p55-sf2 at 0.5: g/ml in PBS was added to Optiplates to coat the wells during a one-hour incubation at 37° C. Serial dilutions of the eight TNV cell supernatants were prepared in 96-well round-bottom plates using PBS/0.1% BSA as diluent. […] The mixture was preincubated for one hour at RT. […] After 2 hrs at RT, Optiplates were washed three times with PBS-Tween. […] of Microscint-20 was added and the cpm bound determined using the TopCount gamma counter.

recombinant human TNFα [2] = target: T1, recombinant human TNFα; experiment: inhibition of 125I-TNFα binding to plate-coated p55-sf2 by hybridoma supernatant
Procedure: as §1

recombinant human TNFα [3] = target: T1, recombinant human TNFα; experiment: cell-based or functional assay

IC50 (read off the curve) (recombinant human TNFα [1]): ~4 ng/mL
fold better at blocking TNF binding, against TNV118 and TNV14 (recombinant human TNFα [2]): ~4 fold
neutralizing TNFα bioactivity (recombinant human TNFα [3]): 4 fold (against TNV14)
B1: TNV148 (antibody, human IgG1, kappa, V domains shown)
VH: QVQLVESGGGVVQPGRSLRLSCAASGFIFSSYAMHWVRQAPGNGLEWVAFMSYDGSNKKYADSVKGRFTISRDNPKNTLYLQMNSLRAEDTAVYYCARDRGIAAGGNYYYYGMDVWGQGTTVTVSS
VL: EIVLTQSPATLSLSPGERATLSCRASQSVYSYLAWYQQKPGQAPRLLIYDASNRATGIPARFSGSGSGTDFTLTISSLEPEDFAVYYCQQRSNWPPFTFGPGTKVDIKR
notes: Hybridoma-derived fully human IgG1 kappa; also called GenTNV148.26.12; C420A

fold better at blocking TNF binding, against TNV118 and TNV14 (recombinant human TNFα [2]): ~4 fold
B2: TNV86 (antibody, human IgG1, kappa, V domains shown)
VH: B1 VH
VL: B1 VL
notes: also called GenTNV86.14.34; C417A

Source: patent publication US20250019429A1 (Janssen / Centocor, published 2025)
